In patent publication US20120171195A1:

Columns and labels:
[1] = molecular target: HLA-Cw*0401 (Cw4) (human); assay: Luminex single-antigen beads; MEM-E/02 1/600; serum Mi92 1/100
HLA-A*2601 (A26) (human) = assay: as above
HLA-B*3901 (B39) (human) = HLA-B*3901 (B39) (human) (UniProt P01889); assay: as above
HLA-B*2708 (B27) (human) = HLA-B*2708 (B27) (human) (UniProt P01889); assay: as above
HLA-B*1513 (B77) (human) = assay: as above
HLA-B*1801 (B18) (human) = assay: as above
HLA-B*5301 (B53) (human) = assay: as above
HLA-B*5401 (B54) (human) = HLA-B*5401 (B54) (human) (UniProt P01889); assay: as above
HLA-B*1511 (B75) (human) = HLA-B*1511 (B75) (human) (UniProt P01889); assay: as above
HLA-B*4801 (B48) (human) = HLA-B*4801 (B48) (human) (UniProt P01889); assay: as above
HLA-B*6701 (B67) (human) = HLA-B*6701 (B67) (human) (UniProt P01889); assay: as above
HLA-B*4403 (B44) (human) = assay: as above
HLA-A*3002 (A30) (human) = HLA-A*3002 (A30) (human) (UniProt P04439); assay: as above
HLA-B*0801 (B8) (human) = HLA-B*0801 (B8) (human) (UniProt P01889); assay: as above
HLA-B*3801 (B38) (human) = assay: as above
HLA-A*3301 (A33) (human) = assay: as above
HLA-A*2501 (A25) (human) = assay: as above
[2] = molecular target: HLA-Cw*1203 (Cw12) (human) (UniProt P10321); assay: as above
HLA-B*4501 (B45) (human) = assay: as above
HLA-B*1401 (B64) (human) = HLA-B*1401 (B64) (human) (UniProt P01889); assay: as above
HLA-B*4901 (B49) (human) = assay: as above
HLA-A*2402 (A24) (human) = HLA-A*2402 (A24) (human) (UniProt P04439); assay: as above
HLA-A*2403 (A24) (human) = assay: as above
HLA-A*3201 (A32) (human) = assay: as above
HLA-B*1301 (B13) (human) = assay: as above
HLA-B*4006 (human) = HLA-B*4006 (human) (UniProt P01889); assay: Luminex beads; MAb 1/100; PBS only
HLA-B*1401 (human) = HLA-B*1401 (human) (UniProt P01889); assay: Luminex beads; MAb 1/100; PBS only
HLA-B*5101 (human) = assay: Luminex beads; MAb 1/100; PBS only
HLA-Cw*0501 (human) = assay: Luminex beads; MAb 1/100; PBS only
HLA-B*1511 (human) = HLA-B*1511 (human) (UniProt P01889); assay: Luminex beads; MAb 1/100; PBS only
HLA-Cw*0202 (human) = assay: Luminex beads; MAb 1/100; PBS only
HLA-Cw*0303 (human) = assay: Luminex beads; MAb 1/100; PBS only
HLA-B*5801 (human) = assay: Luminex beads; MAb 1/100; PBS only
HLA-Cw*0801 (human) = HLA-Cw*0801 (human) (UniProt P10321); assay: Luminex beads; MAb 1/100; PBS only
HLA-B*4403 (human) = assay: Luminex beads; MAb 1/100; PBS only
HLA-B*1801 (human) = assay: Luminex beads; MAb 1/100; PBS only
HLA-Cw*0702 (human) = HLA-Cw*0702 (human) (UniProt P10321); assay: Luminex beads; MAb 1/100; PBS only
HLA-B*4501 (human) = assay: Luminex beads; MAb 1/100; PBS only
HLA-Cw*1402 (human) = HLA-Cw*1402 (human) (UniProt P10321); assay: Luminex beads; MAb 1/100; PBS only
HLA-B*4701 (human) = assay: Luminex beads; MAb 1/100; PBS only

Question: Which % inhibition [1] does the source give for murine monoclonal antibody MAb MEM-E/02 here?
Answer: The % inhibition was 60%.

Question: What about the MFI [1] of the same substance?
Answer: Its MFI is 826 MFI.

Question: And the MFI (HLA-A*2601 (A26) (human))?
Answer: Its MFI is < 500 MFI.

Question: What about the % inhibition (HLA-B*3901 (B39) (human)) of the same substance?
Answer: The % inhibition was 60%.

Question: And the MFI (HLA-B*3901 (B39) (human))?
Answer: The MFI was 737 MFI.

Question: What about the MFI (HLA-B*2708 (B27) (human)) of the same substance?
Answer: Its MFI is < 500 MFI.

Question: And the MFI (HLA-B*1513 (B77) (human))?
Answer: Its MFI is < 500 MFI.

Question: What about the MFI (HLA-B*1801 (B18) (human)) of the same substance?
Answer: Its MFI is < 500 MFI.

Question: And the MFI (HLA-B*5301 (B53) (human))?
Answer: Its MFI is 797 MFI.

Question: And the MFI (HLA-B*5401 (B54) (human))?
Answer: Its MFI is < 500 MFI.

Question: What about the MFI (HLA-B*1511 (B75) (human)) of the same substance?
Answer: The MFI was 946 MFI.

Question: What about the MFI (HLA-B*4801 (B48) (human)) of the same substance?
Answer: The MFI was < 500 MFI.

Question: What about the MFI (HLA-B*6701 (B67) (human)) of the same substance?
Answer: Its MFI is < 500 MFI.

Question: And the MFI (HLA-B*4403 (B44) (human))?
Answer: Its MFI is 600 MFI.

Question: What about the MFI (HLA-A*3002 (A30) (human)) of the same substance?
Answer: The MFI was < 500 MFI.

Question: What about the MFI (HLA-B*0801 (B8) (human)) of the same substance?
Answer: Its MFI is 990 MFI.

Question: And the MFI (HLA-B*3801 (B38) (human))?
Answer: Its MFI is < 500 MFI.

Question: What about the MFI (HLA-A*3301 (A33) (human)) of the same substance?
Answer: The MFI was 522 MFI.

Question: And the MFI (HLA-A*2501 (A25) (human))?
Answer: Its MFI is 722 MFI.

Question: And the % inhibition [2]?
Answer: The % inhibition was 65%.

Question: And the MFI [2]?
Answer: Its MFI is 788 MFI.

Question: And the MFI (HLA-B*4501 (B45) (human))?
Answer: The MFI was < 500 MFI.

Question: And the % inhibition (HLA-B*1401 (B64) (human))?
Answer: The % inhibition was 7%.

Question: What about the MFI (HLA-B*1401 (B64) (human)) of the same substance?
Answer: Its MFI is 701 MFI.

Question: And the MFI (HLA-B*4901 (B49) (human))?
Answer: The MFI was 890 MFI.

Question: What about the MFI (HLA-A*2402 (A24) (human)) of the same substance?
Answer: Its MFI is < 500 MFI.

Question: And the MFI (HLA-A*2403 (A24) (human))?
Answer: The MFI was < 500 MFI.

Question: What about the MFI (HLA-A*3201 (A32) (human)) of the same substance?
Answer: Its MFI is < 500 MFI.

Question: What about the MFI (HLA-B*1301 (B13) (human)) of the same substance?
Answer: The MFI was 978 MFI.

Question: With “murine monoclonal antibody (MAb) MEM-E/02” as the substance, how does the MFI (HLA-B*4006 (human)) read?
Answer: Its MFI is 8590 MFI.

Question: What about the MFI (HLA-B*1401 (human)) of the same substance?
Answer: The MFI was 7340 MFI.

Question: And the MFI (HLA-B*5101 (human))?
Answer: Its MFI is 2210 MFI.

Question: And the MFI (HLA-Cw*0501 (human))?
Answer: Its MFI is 7180 MFI.

Question: And the MFI (HLA-B*1511 (human))?
Answer: The MFI was 3430 MFI.

Question: And the MFI (HLA-Cw*0202 (human))?
Answer: Its MFI is 3880 MFI.

Question: What about the MFI (HLA-Cw*0303 (human)) of the same substance?
Answer: Its MFI is 3200 MFI.

Question: What about the MFI (HLA-B*5801 (human)) of the same substance?
Answer: The MFI was 3990 MFI.

Question: What about the MFI (HLA-Cw*0801 (human)) of the same substance?
Answer: Its MFI is 5890 MFI.

Question: What about the MFI (HLA-B*4403 (human)) of the same substance?
Answer: Its MFI is 3680 MFI.

Question: And the MFI (HLA-B*1801 (human))?
Answer: Its MFI is 3540 MFI.

Question: What about the MFI (HLA-Cw*0702 (human)) of the same substance?
Answer: The MFI was 3080 MFI.

Question: What about the MFI (HLA-B*4501 (human)) of the same substance?
Answer: Its MFI is 4770 MFI.

Question: What about the MFI (HLA-Cw*1402 (human)) of the same substance?
Answer: The MFI was 3470 MFI.

Question: What about the MFI (HLA-B*4701 (human)) of the same substance?
Answer: Its MFI is 3650 MFI.
